{"source": "paper PMC5472717", "key": {"[1]": {"test_system": "Zur (zinc uptake regulator) (Streptomyces coelicolor A3(2) M145?)", "assay": "EMSA", "conditions": "5 uM ZnSO4; 20 mM Tris-HCl pH 7.8, 50 mM KCl, 1 mM DTT, 0.1 mg/ml BSA, 5% glycerol, 0.1 ug poly(dI-dC) per 20 ul, 0-20 uM ZnSO4, room temperature 20 min; gel 5% PAGE in TB …"}, "[2]": {"biological_target": "Zur (zinc uptake regulator) of Streptomyces coelicolor (Streptomyces coelicolor)", "assay": "native gel or EMSA; EMSA of purified Zur (0-90 nM) on 32P-labelled znuA and zitB DNA probes (25, 33, 46, 114 bp) with 0-20 uM ZnSO4; 20 mM Tris-HCl pH 7.8, 50 mM KCl, 1 mM DTT, room temperature; the number of Zur chains in each shifted band was estimated from mobility on native PAGE at different acrylamide percentages; Zur oligomers seen only on DNA"}}, "data": [{"substance": "GCACATGACAACGGTGTTCAGTGCC (double strand) [zitB 25 bp Zur-box probe (-63 to -39)]", "values": [{"measurement": "Kd", "setting": "[1]", "value": 19.3, "unit": "nM"}]}, {"substance": "Zur (zinc uptake regulator) of Streptomyces coelicolor (natural protein)", "values": [{"measurement": "stoichiometry N", "setting": "[2]", "value": 2}]}]}
